The labels stand for the following.
B1: B4-86 (antibody, V domains shown)
VH: EQSVESGGDLVKPEGSLTLTCTVSGFSFSSSYWICWVRQAPGKGLEWIGCIGTGSGSTYYGSWAKGRFTISKTSSTTVTLQMTSLTAADTATYFCVRGAGYSSYRLWGPGTLVTISS
VL: ELDMTQTPASVSEPVGGTVTIKCQASESVSNWLAWYQQKPGQRPKLLIYGASTLESGVPSRFSGSGSGTEFTLTISNLECADAATYYCQQGYDWDNIDNAFGGGTEVVVK
notes: Rabbit monoclonal antibody
B2: B4-116-1 (antibody, V domains shown)
VH: EQSVEESGGDLVKPGASLTLTCAASGFSFSSTYCMCWVRQAPGKGLEWIACIHGVSTNNRWYASWPKGRFTISKTSSTTVTLQMTSLTAADTATYFCARSDTDYEWGLSLWGPGTLVTISS
VL: ELDLTQTPASVSEPVGGTVTIKCQASESIGSRLAWYQQKPGQRPKLLIYKASTLASGVPSRFSGSGSGTEFTLTVSDLECADVAAYYCQCAGQSSTWAFGGGTEVEIK
notes: Rabbit monoclonal antibody
B3: B4-116-2 (antibody, V domains shown)
VH: B2 VH
VL: B2 VL with D3V, L4M, S12E, E13A, P14V, E106V, I107V
notes: Rabbit monoclonal antibody
B4: B4-15-1 (antibody, V domains shown)
VH: SGGLEESGGRLVTPGTPLTLTCTASGFTINSAHMSWVRQAPGKGLEWIGFSTTGGPSYYANWAKGRFTISRTSTTVDLEITSPTIEDTATYFCARDGPGNNIDMDLWGQGTLVTITS
VL: ELDLTQTPASVSEPVGGTVTIKCQASQNRGGSIAWYQQKPGQPPKLLIYSASTLASGVPSRFSGSGYGTEFTLTISGVQCADAGTYYCQSTIYSISDIGAFGGGTEVVVK
notes: Rabbit monoclonal antibody against human LILRB4 ECD
B5: B4-49 (antibody, V domains shown)
VH: QSLEESGGDLVKPGASLTLTCTASGFDFSSSGWICWVRQAPGKGLELIACIYSGRSGSTYYASWAKGRVTISKTSSTTVTLQMTSLTAADTATYFCARALYVDYVDYDYIDLWGPGTLVTVSS
VL: ELDLTQTPASVEAAVGGTVTIKCQASQSTGIRLAWYQQKPGQPPKLLMYATSNLASGVSSRFKGSGSGTEFTLTISDLECADAATYYCQYSYYGSSYVFDFGGGTEVEIK
notes: Rabbit monoclonal antibody
B6: h193 antibody No. 32 (h193-H6 / h193-K2) (antibody, V domains shown)
VH: EVQLVESGGGLVQPGGSLRLSCAASGFSLSSSYWISWVRQAPGKGLEWIGSIDSGSVGITYYATSAKGRFTISRDNSKNTLYLQMNSLRAEDTAVYYCARHGDNWALDLWGQGTLVTVSS
VL: DLVMTQSPSTLSASVGDRVTITCQASQSINSWLAWYQQKPGKPPKLLIYKASTLASGVSSRFSGSGSGTEFTLTISSLQPDDVATYYCQHGYIRGDLDNVFGGGTKVEIK
B7: h193 antibody No. 33 (h193-H6 / h193-K3) (antibody, V domains shown)
VH: B6 VH
VL: B6 VL with L2I, V3Q, Q24R, P43A, S59P, V83F
B8: h193 antibody No. 36 (h193-H7 / h193-K2) (antibody, V domains shown)
VH: B6 VH with S65W, A66V
VL: B6 VL
B9: h193 antibody No. 35 (h193-H7 / h193-K1) (antibody, V domains shown)
VH: B6 VH with S65W, A66V
VL: B6 VL with L2I, V3Q, P43A, S59P, V83F
B10: h193 antibody No. 37 (h193-H7 / h193-K3) (antibody, V domains shown)
VH: B6 VH with S65W, A66V
VL: B6 VL with L2I, V3Q, Q24R, P43A, S59P, V83F

Positions count from the first letter of the chain named. “And” between values parts separate entries of the source, which are not always exact repeats. Identical values can stand only once.

What is called EC50 is the midpoint of the concentration-response curve. The Kd is the free concentration of one partner at which half of the binding sites on the other are occupied at equilibrium, for simple one-to-one binding. As a reminder, the koff is a measure of how fast the partners let go of each other. A word on the kon: it is the rate constant with which the complex forms.

Chain of LILRA5 (A6NI73 42-268 limits assumed): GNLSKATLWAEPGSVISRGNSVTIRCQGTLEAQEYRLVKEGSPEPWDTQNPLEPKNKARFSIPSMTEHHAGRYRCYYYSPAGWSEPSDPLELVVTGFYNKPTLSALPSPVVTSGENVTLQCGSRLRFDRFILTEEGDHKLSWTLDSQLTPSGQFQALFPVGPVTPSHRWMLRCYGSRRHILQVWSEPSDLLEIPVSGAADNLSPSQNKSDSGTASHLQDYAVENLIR
Chain of LILRB3 (O75022 24-443 limits assumed): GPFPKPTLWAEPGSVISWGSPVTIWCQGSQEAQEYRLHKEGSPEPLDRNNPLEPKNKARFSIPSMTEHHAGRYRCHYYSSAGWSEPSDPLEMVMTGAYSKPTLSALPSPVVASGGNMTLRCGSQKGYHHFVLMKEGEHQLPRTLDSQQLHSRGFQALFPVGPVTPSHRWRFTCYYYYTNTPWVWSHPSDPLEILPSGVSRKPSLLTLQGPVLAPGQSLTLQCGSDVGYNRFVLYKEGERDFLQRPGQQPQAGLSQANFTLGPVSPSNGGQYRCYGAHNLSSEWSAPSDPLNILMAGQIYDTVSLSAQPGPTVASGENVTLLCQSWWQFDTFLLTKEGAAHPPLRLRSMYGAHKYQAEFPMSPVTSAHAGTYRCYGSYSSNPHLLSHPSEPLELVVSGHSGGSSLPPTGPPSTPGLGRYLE
Chain of LILRA1 (O75019 17-461 limits assumed): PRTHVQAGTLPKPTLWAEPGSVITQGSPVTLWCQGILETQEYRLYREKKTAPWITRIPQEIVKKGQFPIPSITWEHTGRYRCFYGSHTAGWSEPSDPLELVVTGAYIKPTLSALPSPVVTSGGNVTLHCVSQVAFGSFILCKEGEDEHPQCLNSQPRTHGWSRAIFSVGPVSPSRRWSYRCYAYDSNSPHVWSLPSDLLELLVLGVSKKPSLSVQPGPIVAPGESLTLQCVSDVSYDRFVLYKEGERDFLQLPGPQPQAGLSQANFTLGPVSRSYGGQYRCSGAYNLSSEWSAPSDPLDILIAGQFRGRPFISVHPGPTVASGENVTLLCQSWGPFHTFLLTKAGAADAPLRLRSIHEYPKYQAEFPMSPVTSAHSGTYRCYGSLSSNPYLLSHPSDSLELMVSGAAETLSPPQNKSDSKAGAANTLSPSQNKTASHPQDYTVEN
Chain of LILRA6 (Q6PI73 24-447 limits assumed): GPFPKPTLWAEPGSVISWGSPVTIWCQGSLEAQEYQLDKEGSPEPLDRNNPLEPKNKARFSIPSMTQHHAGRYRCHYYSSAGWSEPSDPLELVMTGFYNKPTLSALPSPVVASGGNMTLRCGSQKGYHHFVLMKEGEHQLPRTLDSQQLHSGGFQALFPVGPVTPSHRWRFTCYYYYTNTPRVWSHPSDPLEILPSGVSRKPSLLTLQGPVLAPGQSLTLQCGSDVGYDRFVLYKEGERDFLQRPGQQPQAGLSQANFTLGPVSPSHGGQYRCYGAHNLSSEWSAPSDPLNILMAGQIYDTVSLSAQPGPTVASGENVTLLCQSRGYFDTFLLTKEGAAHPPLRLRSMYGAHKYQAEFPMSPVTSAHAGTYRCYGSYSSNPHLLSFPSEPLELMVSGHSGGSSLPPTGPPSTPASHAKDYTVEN
Chain of LILRA2 (Q8N149 24-449 limits assumed): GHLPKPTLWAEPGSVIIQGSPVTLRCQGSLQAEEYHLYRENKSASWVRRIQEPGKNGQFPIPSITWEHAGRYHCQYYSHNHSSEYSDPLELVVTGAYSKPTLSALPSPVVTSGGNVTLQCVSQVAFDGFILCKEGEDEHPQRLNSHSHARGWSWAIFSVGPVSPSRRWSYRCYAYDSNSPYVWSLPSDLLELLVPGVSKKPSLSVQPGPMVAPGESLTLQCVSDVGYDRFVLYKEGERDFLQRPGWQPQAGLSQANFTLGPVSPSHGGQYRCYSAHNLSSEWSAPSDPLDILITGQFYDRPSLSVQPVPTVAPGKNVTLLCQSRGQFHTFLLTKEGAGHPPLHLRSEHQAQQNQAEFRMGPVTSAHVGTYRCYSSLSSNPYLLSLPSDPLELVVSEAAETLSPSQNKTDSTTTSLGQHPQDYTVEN
Chain of LILRB2 (Q8N423 22-460 limits assumed): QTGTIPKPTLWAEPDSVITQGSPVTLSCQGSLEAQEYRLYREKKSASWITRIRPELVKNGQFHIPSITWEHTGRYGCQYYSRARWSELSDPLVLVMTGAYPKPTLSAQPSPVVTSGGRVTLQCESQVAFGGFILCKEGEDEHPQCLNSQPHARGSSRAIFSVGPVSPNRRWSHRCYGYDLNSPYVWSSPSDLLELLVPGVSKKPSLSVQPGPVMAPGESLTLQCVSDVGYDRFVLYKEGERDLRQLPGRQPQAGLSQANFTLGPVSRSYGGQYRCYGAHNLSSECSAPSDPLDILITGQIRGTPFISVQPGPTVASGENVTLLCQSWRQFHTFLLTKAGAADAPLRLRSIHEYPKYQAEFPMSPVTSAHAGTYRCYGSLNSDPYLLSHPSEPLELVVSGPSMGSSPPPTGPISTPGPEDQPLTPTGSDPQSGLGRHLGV
Chain of LILRB1 (Q8NHL6 24-461 limits assumed): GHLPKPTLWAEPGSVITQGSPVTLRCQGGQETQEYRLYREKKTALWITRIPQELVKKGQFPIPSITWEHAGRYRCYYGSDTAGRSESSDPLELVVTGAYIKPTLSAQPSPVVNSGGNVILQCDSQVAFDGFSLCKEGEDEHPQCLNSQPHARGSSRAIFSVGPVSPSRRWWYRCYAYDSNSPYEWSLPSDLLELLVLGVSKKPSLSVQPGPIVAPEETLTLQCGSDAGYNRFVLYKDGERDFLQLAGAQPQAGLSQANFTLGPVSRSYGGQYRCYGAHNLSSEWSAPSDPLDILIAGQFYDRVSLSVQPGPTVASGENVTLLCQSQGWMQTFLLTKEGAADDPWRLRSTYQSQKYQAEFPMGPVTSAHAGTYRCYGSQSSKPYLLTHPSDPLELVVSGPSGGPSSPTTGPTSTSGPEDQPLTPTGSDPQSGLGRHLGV
Chain of LILRA4 (P59901 24-446 limits assumed): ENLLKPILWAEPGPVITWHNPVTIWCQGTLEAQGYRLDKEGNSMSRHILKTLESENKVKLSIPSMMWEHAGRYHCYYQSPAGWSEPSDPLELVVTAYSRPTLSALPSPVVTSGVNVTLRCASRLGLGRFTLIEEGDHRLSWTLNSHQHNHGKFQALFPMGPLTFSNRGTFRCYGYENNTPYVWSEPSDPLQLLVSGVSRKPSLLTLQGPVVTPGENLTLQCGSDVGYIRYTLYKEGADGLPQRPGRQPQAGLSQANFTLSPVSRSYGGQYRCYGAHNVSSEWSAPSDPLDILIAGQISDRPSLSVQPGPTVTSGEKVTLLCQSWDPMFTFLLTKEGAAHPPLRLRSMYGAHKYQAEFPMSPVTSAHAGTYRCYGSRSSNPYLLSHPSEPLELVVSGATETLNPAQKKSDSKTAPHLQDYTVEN

In the first assay the target is T1, human LILRB4 extracellular domain (ECD) recombinant protein (human, UniProt Q8NHJ6 22-259).
T1 construct: extracellular domain; also called LILRB4 ECD; LILRB4-ECD
In words: ELISA, coated LILRB4 ECD. The procedure:
FIG. 22 illustrates the determination of exemplary LILRB4 monoclonal antibody (mAbs) binding to human LILRB4 ECD using a concentration titration (0-10 μg/ml) by ELISA. X axis indicates the antibody concentrations and Y-axis is binding signals in OD (450 nm). LILRB4 ECD recombinant protein was coated on high absorption 96-well plates. Serial diluted (3-fold) LILRB4 mAb was added to the coated/blocked and detected using goat anti-rabbit IgG F(ab)₂-conjugated HRP as secondary antibody. The titration curves were fitted using 4-parameter fitting curve using the GraphPad software for EC50 estimation.
A general note: In an ELISA, binding on a coated surface is turned into a signal by an enzyme label.
For the molecule B1, the EC50 was found to be 1.02 nM.

In the case of B2, the EC50 was 2.58 nM.

As for B3, the EC50 is 1.7 nM.

Turning to B4, the EC50 was 0.99 nM.

With B5, the EC50 came out at 1.01 nM.

The next assay has as its target LILRB1 (human (not printed on the sheet), UniProt Q8NHL6). In words: LILR reporter cells on coated antibody, GFP positive (%). The procedure:
(§1) FIGS. 41A-41M illustrate specific binding of h193 antibodies to LILRB4 protein. FIGS. 41A-41L illustrate the specificity of h193 antibodies determined by LILR reporter assays, in which LILR reporter cells are added to the plates coated with h193 antibodies. The binding of h193 antibodies to the ECD of the LILR member on the surface of the reporter cells induced GFP signal. FIG. 41M illustrates the specificity of an exemplary h193 antibody determined by ELISA. LILRA and LILRB recombinant proteins were coated on high absorption 96-well plates. Serial diluted (5-fold) mAb h193 were added to the coated/blocked plates and detected using goat anti-human IgG F(ab)2 conjugated HRP as secondary antibody.
B6: the binding result is reported as “no binding”.

As for B7, the binding result was “no binding”.

As to B8, the binding result is recorded as “no binding”.

Consider B9, for which the binding result is on record as “no binding”.

For B10, the binding result was “no binding”.

The target in another assay is LILRB5 (human (not printed on the sheet), UniProt O75023). Described as above. The protocol: as §1
Chain of LILRB5 (O75023 24-458 limits assumed): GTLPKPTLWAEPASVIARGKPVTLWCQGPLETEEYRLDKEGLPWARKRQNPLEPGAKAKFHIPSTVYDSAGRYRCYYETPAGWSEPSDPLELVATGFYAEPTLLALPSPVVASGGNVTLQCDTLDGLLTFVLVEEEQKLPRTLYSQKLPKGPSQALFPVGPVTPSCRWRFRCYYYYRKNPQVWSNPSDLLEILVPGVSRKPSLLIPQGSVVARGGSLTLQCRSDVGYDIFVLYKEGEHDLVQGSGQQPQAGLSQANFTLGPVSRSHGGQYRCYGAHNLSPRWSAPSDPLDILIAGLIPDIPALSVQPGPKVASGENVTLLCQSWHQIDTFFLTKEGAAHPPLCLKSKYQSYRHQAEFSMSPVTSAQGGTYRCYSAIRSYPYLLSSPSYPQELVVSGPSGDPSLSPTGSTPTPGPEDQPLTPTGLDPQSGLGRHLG
As for B6, the binding result is recorded as “no binding”.

B7: the binding result is recorded as “no binding”.

In the case of B8, the binding result is reported as “no binding”.

With B9, the binding result was “no binding”.

On to B10, for which the binding result was “no binding”.

The target of the next assay is LILRB3 (human (not printed on the sheet), UniProt O75022). The description is as above. The protocol:
as §1
For B6, the binding result was “no binding”.

On to B7, for which the binding result is on record as “no binding”.

On to B8, for which the binding result is “no binding”.

For the molecule B9, the binding result is recorded as “no binding”.

As for B10, the binding result is reported as “no binding”.

Another assay addresses LILRA6 (human (not printed on the sheet), UniProt Q6PI73). The assay is described as above. The protocol: as §1
Regarding B6, the binding result is given as “no binding”.

Consider B7, for which the binding result was “no binding”.

In the case of B8, the binding result is listed as “no binding”.

As to B9, the binding result is recorded as “no binding”.

For B10, the binding result was “no binding”.

A further assay addresses LILRA1 (human (not printed on the sheet), UniProt O75019). Described as above. The procedure:
as §1
As to B6, the binding result is “no binding”.

In the case of B7, the binding result is reported as “no binding”.

For the molecule B8, the binding result is recorded as “no binding”.

For the molecule B9, the binding result is “no binding”.

For the molecule B10, the binding result is recorded as “no binding”.

The next assay deals with LILRA4 (human (not printed on the sheet), UniProt P59901). The description is as above. The protocol:
as §1
Consider B6, for which the binding result is “no binding”.

Turning to B7, the binding result is given as “no binding”.

For B8, the binding result is on record as “no binding”.

For the molecule B9, the binding result is “no binding”.

Regarding B10, the binding result is on record as “no binding”.

The target of the next assay is LILRA5 (human (not printed on the sheet), UniProt A6NI73). Described as above. The procedure:
as §1
Regarding B6, the binding result is given as “no binding”.

On to B7, for which the binding result is “no binding”.

For B8, the binding result was “no binding”.

Turning to B9, the binding result is recorded as “no binding”.

In the case of B10, the binding result is given as “no binding”.

Another assay deals with LILRB2 (human (not printed on the sheet), UniProt Q8N423). The assay is described as above. The protocol:
as §1
For the molecule B6, the binding result is “no binding”.

B7: the binding result is reported as “no binding”.

For B8, the binding result is on record as “no binding”.

As to B9, the binding result is “no binding”.

B10: the binding result is on record as “no binding”.

The target in a further assay is LILRA2 (human (not printed on the sheet), UniProt Q8N149). The assay is described as above. The procedure:
as §1
Consider B6, for which the binding result is on record as “no binding”.

With B7, the binding result is “no binding”.

For B8, the binding result is given as “no binding”.

For the molecule B9, the binding result is recorded as “no binding”.

Turning to B10, the binding result is “no binding”.

For another assay, the target named is LILRA3 (human (not printed on the sheet), UniProt Q8N6C8). The assay is described as above. The protocol: as §1
Chain of LILRA3 (Q8N6C8 24-439 limits assumed): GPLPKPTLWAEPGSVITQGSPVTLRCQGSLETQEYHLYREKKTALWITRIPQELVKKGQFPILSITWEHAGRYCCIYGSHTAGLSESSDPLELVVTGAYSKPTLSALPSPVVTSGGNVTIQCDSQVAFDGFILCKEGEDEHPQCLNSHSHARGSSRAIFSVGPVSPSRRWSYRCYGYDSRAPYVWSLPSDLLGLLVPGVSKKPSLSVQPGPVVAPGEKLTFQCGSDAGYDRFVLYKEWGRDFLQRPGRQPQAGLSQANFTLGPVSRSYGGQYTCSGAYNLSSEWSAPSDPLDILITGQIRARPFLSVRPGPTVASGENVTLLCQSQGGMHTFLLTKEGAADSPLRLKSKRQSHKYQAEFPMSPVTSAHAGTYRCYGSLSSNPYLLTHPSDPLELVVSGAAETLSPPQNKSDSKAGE
B6: the binding result is “no binding”.

With B7, the binding result was “no binding”.

Turning to B8, the binding result is “no binding”.

Consider B9, for which the binding result is “no binding”.

As for B10, the binding result is listed as “no binding”.

The next assay concerns the target T1, human LILRB4 extracellular domain (ECD) …. In words: Octet BLI, antibody on protein A sensor, recombinant human LILRB4 in solution. The procedure:
FIG. 26 illustrates the kinetic binding measurements (sensor-grams) for exemplary LILRB4 antibodies determined using Octet. Antibody at 30 μg/mL was loaded to the proteins A sensor for 4 min. Following a short baseline in kinetics buffer, the loaded sensors were exposed to a series of recombinant human LILRB4 concentrations (0.1-200 nM) and background subtraction was used to correct for sensor drifting. All experiments were performed with shaking at 1,000 rpm. Background wavelength shifts were measured from reference sensors that were loaded only with antibody. ForteBio's data analysis software was used to fit the data to a 1:1 binding model to extract an association rate and dissociation rate. The KD was calculated by the ratio koff/kon using ForteBio's data analysis software 7.0.
Consider B1, for which the Kd worked out at 0.344 nM.

For B2, the Kd was found to be 0.82 nM.

As to B3, the Kd was 0.495 nM.

With B5, the Kd amounted to 0.0233 nM.

The target is the same in another assay. Nature of the assay: Octet. In general terms: In BLI a coated tip is dipped into the sample, and binding shifts an interference pattern.
For B6, the Kd came to 2.38 nM, the koff came to 0.000362 s⁻¹ and the kon came to 152000 M⁻¹ s⁻¹.

Turning to B7, the Kd came out at 2.33 nM, the koff was 0.000345 s⁻¹ and the kon stood at 148000 M⁻¹ s⁻¹.

For the molecule B8, the Kd was 1.01 nM, the koff was 0.000144 s⁻¹ and the kon amounted to 143000 M⁻¹ s⁻¹.

Regarding B9, the Kd was determined as 1.05 nM, the koff came to 0.000148 s⁻¹ and the kon amounted to 141000 M⁻¹ s⁻¹.

Turning to B10, the Kd worked out at 0.984 nM, the koff amounted to 0.00014 s⁻¹ and the kon is 143000 M⁻¹ s⁻¹.

For a further assay the target is unchanged. Nature of the assay: ELISA.
Take B6: the EC50 is 0.262 µg/mL and 1.74 nM.

On to B7, for which the EC50 was 0.32 µg/mL and 2.13 nM.

Consider B8, for which the EC50 is 0.145 µg/mL and 0.96 nM.

For the molecule B9, the EC50 is 0.162 µg/mL and 1.08 nM.

With B10, the EC50 is 0.163 µg/mL and 1.08 nM.

The values are drawn from patent US20210371518A1 (University of Texas, published 2021).
